Patent publication US20260201029A1 (Janssen / Centocor, published 2026)
Where two headings read alike, the source gives them in different places. Blank lines part the entries; values can stand above or below the binder they belong to.

Assays:
[1] = target: T1, human GPRC5D (G-protein coupled receptor family C group 5 member D) (human, UniProt Q9NZD1 1-345); assay: cell-based or functional assay
[2] = target: T2, human FcγRI (human, UniProt P12314 16-288, limits assumed); assay: SPR, receptor captured by anti-his, antibody injected, 1:1 fit
T2 construct: His-tagged (captured on anti-his surface); construct not described; also called hu-RI; FcgRI
T2 sequence (P12314 16-288 limits assumed): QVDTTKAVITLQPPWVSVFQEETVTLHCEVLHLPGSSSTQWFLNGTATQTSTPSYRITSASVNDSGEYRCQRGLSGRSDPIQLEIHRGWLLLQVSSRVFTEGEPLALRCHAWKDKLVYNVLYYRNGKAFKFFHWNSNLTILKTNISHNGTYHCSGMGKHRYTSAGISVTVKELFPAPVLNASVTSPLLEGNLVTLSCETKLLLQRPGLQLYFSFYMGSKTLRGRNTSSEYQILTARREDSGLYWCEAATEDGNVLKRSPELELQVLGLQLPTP

[3] = target: T3, cynomolgus FcγRI (cynomolgus); assay: as above
T3 construct: His-tagged (captured on anti-his surface); construct not described; also called cy-RI; FcgRI

[4] = target: T4, human FcγRIIIa 158F allele (human, UniProt P08637 17-208); assay: as above
T4 construct: His-tagged (captured on anti-his surface); construct not described; also called Hu-RIIIaF; FcgRIIIa
T4 sequence (P08637 17-208 limits assumed): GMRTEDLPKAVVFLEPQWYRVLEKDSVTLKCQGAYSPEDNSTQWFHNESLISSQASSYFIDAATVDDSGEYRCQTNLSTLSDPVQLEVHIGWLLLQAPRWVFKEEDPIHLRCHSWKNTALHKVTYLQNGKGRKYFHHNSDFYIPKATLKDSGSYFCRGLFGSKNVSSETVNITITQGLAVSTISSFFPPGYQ

[5] = target: T5, cynomolgus FcγRIII (cynomolgus, UniProt Q8SPW2 17-208, limits assumed); assay: as above
T5 construct: His-tagged (captured on anti-his surface); construct not described; also called cy-RIII; FcgRIII
T5 sequence (Q8SPW2 17-208 limits assumed): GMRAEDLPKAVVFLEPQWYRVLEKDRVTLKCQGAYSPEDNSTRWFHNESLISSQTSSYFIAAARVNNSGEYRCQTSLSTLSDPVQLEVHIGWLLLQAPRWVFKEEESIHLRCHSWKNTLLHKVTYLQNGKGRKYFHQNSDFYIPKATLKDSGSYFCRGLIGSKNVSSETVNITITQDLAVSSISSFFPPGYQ

[6] = target: T6, human FcγRIIIa 158V allele (human, UniProt P08637 17-208); assay: as above
T6 construct: His-tagged (captured on anti-his surface); construct not described; The 158V allele differs from the 158F allele at that one position; also called Hu-RIIIa V; Hu-RIIIaV
T6 sequence (P08637 17-208 F176V limits assumed): as the sequence (P08637 17-208 limits assumed) above, with F160V counted along it

[7] = target: T7, cynomolgus FcγRIIa (cynomolgus); assay: SPR, receptor captured by anti-his, antibody injected, steady-state fit
T7 construct: His-tagged (captured on anti-his surface); construct not described; also called cy-RIIa; FcgRIIa

[8] = target: T8, cynomolgus FcγRIIb (cynomolgus); assay: as above
T8 construct: His-tagged (captured on anti-his surface); construct not described; also called cy-RIIb; FcgRIIb

[9] = target: T9, human FcγRIIa (human, UniProt P12318 36-218, limits assumed); assay: as above
T9 construct: His-tagged (captured on anti-his surface); construct and allele not described; also called hu-RIIa; FcgRIIa
T9 sequence (looked up): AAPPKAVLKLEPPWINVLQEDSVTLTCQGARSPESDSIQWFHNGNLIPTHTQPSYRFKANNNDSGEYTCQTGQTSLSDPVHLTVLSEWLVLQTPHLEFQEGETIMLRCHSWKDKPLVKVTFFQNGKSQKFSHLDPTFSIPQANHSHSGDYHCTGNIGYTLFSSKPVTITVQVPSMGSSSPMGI

[10] = target: T10, human FcγRIIb/c (human, UniProt P31994 46-217, limits assumed); assay: as above
T10 construct: His-tagged (captured on anti-his surface); construct not described; also called hu-RIIb/c; FcgRIIb
T10 sequence (looked up): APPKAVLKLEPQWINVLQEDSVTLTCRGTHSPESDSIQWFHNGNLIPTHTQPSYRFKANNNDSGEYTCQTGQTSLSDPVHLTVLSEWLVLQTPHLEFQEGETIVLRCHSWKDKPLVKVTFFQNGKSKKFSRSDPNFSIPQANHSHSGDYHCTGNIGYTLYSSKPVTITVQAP

[11] = target: T11, human GPRC5D nanodisc (human, UniProt Q9NZD1 1-345); assay: SPR, antibody captured by anti-human Fc, GPRC5D-nanodisc injected, 1:1 fit
T11 construct: Bought reagent; also called GPRC5D-nanodiscs (Acro, #GPD-H52D4)
T11 sequence (Q9NZD1 whole entry): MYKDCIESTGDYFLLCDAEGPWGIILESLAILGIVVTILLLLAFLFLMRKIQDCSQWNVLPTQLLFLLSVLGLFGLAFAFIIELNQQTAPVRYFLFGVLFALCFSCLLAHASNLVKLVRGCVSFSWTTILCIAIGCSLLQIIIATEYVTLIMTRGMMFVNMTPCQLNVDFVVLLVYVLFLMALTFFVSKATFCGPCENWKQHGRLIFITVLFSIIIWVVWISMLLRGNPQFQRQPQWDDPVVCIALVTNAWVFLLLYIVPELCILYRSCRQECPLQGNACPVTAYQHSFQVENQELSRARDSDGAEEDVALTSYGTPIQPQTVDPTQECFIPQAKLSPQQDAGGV

[12] = target: cyno GPRC5D nanodisc (cynomolgus monkey); assay: as above
[13] = target: T11, human GPRC5D nanodisc; assay: as above; remark: listed apart in the source
[14] = target: T1, human GPRC5D (G-protein coupled …); assay: cell-based or functional assay; remark: listed apart in the source
[15] = target: T1, human GPRC5D (G-protein coupled …); assay: flow cytometry on H929 cells
[16] = target: T1, human GPRC5D (G-protein coupled …); assay: flow cytometry on MM1.R cells

T1 sequence (Q9NZD1 whole entry): as above

ADCC EC50 (nM), CD138+ MM patient plasma cells, Sample 1 [1]: 0.007 nM | ADCC EC50 (nM), CD138+ MM patient plasma cells, Sample 2 [1]: 0.09 nM | ADCC EC50 (nM), CD138+ MM patient plasma cells, Sample 6 [1]: 0.04 nM | ADCC EC50 (nM), CD138+ MM patient plasma cells, Sample 17 [1]: 0.64 nM | CDC EC50 (nM), CD138+ MM patient plasma cells, Sample 6 [1]: 40.5 nM | CDC EC50 (nM), CD138+ MM patient plasma cells, Sample 17 [1]: 35.5 nM | Fold increase in binding (vs wt IgG1 control) [2]: 2.2 fold | Kd [2]: 1.3 nM | koff [2]: 0.000738 s⁻¹ | kon [2]: 567000 M⁻¹ s⁻¹ | Fold increase in binding (vs wt IgG1 control) [3]: 1.5 fold | Kd [3]: 1 nM | koff [3]: 0.000659 s⁻¹ | kon [3]: 647000 M⁻¹ s⁻¹ | Fold increase in binding (vs wt IgG1 control) [4]: 50.7 fold | Kd [4]: 75 nM | koff [4]: 0.167 s⁻¹ | kon [4]: 2.24e+06 M⁻¹ s⁻¹ | Fold increase in binding (vs wt IgG1 control) [5]: 33.2 fold | Kd [5]: 11.9 nM | koff [5]: 0.034 s⁻¹ | kon [5]: 2.86e+06 M⁻¹ s⁻¹ | Fold increase in binding (vs wt IgG1 control) [6]: 111 fold | Kd [6]: 8.1 nM | koff [6]: 0.0232 s⁻¹ | kon [6]: 2.85e+06 M⁻¹ s⁻¹ | Fold increase in binding (vs wt IgG1 control) [7]: 0.9 fold | Kd [7]: 8820 nM | Fold increase in binding (vs wt IgG1 control) [8]: 0.8 fold | Kd [8]: 5400 nM | Fold increase in binding (vs wt IgG1 control) [9]: 2.5 fold | Kd [9]: 3710 nM | Fold increase in binding (vs wt IgG1 control) [10]: 1 fold | Kd [10]: 11600 nM | Kd [11]: 84 nM | koff [11]: 0.00148 s⁻¹ | kon [11]: 18000 M⁻¹ s⁻¹ | Kd [12]: 1880 nM | koff [12]: 0.0179 s⁻¹ | kon [12]: 9520 M⁻¹ s⁻¹ | Kd [13]: 77 nM | koff [13]: 0.00169 s⁻¹ | kon [13]: 22000 M⁻¹ s⁻¹ | ADCC EC50, AMO-1 cells, primary healthy donor human NK cells [14]: 1.2 nM | ADCC EC50, H929 cells, primary healthy donor human NK cells [14]: 0.04 nM | ADCC EC50, MM.1R cells, primary healthy donor human NK cells [14]: 0.005 nM | ADCP EC50, H929 cells, M1-macrophages [14]: 0.05 nM | ADCP EC50, MM.1R cells, M1-macrophages [14]: 0.05 nM | CDC EC50, AMO-1 cells, CellTiter-Glo, 40% human serum [14]: 35.3 nM | CDC EC50, JIM-3 cells, CellTiter-Glo, 40% human serum [14]: 13.1 nM | CDC EC50, MM.1R cells, CellTiter-Glo, 40% human serum [14]: 8.77 nM
B1: GC5B1552.AFU (antibody, human IgG1, kappa)
chain: DKTHTCPPCPAPELLGGPSVFLFPPKPEDTLMISRTPEVTCVVVDVSHEDPEVKFNWYVDGVEVHNAKTKPREEQYNSTYRVVSVLTVLHQDWLNGKEYKCKVSNKALPAPIEKTISKAKGQPREPQVYTLPPSREEMTKNQVSLWCLVKGFYPSDIAVEWESNGQPENNYKTTPPVLDSDGSFFLYSKLTVDKSRWQQGNVFSCSVMHEALHNHYRQKSLSLSPGK
heavy: not shown
light: DIQMTQSPSSLSASVGDRVTITCRASQGIRNDLGWYQQKPGKAPKRLIYAASSLQSGVPSRFSGSGSGTEFTLTISSLQPEDFATYYCLQRNTYPLTFGGGTKVEIKRTVAAPSVFIFPPSDEQLKSGTASVVCLLNNFYPREAKVQWKVDNALQSGNSQESVTEQDSKDSTYSLSSTLTLSKADYEKHKVYACEVTHQGLSSPVTKSFNRGEC
notes: expressed in a FUT8 knockout CHO host, so the Fc glycan is afucosylated; also called GC5B1552.AFU.003; GC5B1552.AFU.001

EC50 [15]: 1.3 nM | EC50 [16]: 3.2 nM
B2: GC5B1552 (antibody)
chain: DKTHTCPPCPAPELLGGPSVFLFPPKPEDTLMISRTPEVTCVVVDVSHEDPEVKFNWYVDGVEVHNAKTKPREEQYNSTYRVVSVLTVLHQDWLNGKEYKCKVSNKALPAPIEKTISKAKGQPREPQVYTLPPSREEMTKNQVSLWCLVKGFYPSDIAVEWESNGQPENNYKTTPPVLDSDGSFFLYSKLTVDKSRWQQGNVFSCSVMHEALHNHYRQKSLSLSPGK
heavy: not shown
light: DIQMTQSPSSLSASVGDRVTITCRASQGIRNDLGWYQQKPGKAPKRLIYAASSLQSGVPSRFSGSGSGTEFTLTISSLQPEDFATYYCLQRNTYPLTFGGGTKVEIKRTVAAPSVFIFPPSDEQLKSGTASVVCLLNNFYPREAKVQWKVDNALQSGNSQESVTEQDSKDSTYSLSSTLTLSKADYEKHKVYACEVTHQGLSSPVTKSFNRGEC
notes: Monovalent JAWA (K248E/T437R) antibody as named without the .AFU suffix
